According to US20260167699A1 (Chugai, published 2026):
Residue numbers refer to the chain shown, from its start.

T1: FcγRIIa(R) extracellular domain, C-terminal His tag (human, UniProt P12318 34-217)
T1 construct: extracellular domain; also called 2aR
T1 sequence: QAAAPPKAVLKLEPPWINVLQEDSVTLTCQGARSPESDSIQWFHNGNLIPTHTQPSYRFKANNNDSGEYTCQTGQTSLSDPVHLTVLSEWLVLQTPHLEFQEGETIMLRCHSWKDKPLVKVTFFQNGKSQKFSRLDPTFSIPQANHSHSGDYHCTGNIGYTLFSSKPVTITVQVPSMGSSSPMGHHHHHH

T2: FcγRIIb extracellular domain, C-terminal His tag (human, UniProt P31994 43-217)
T2 construct: extracellular domain; also called 2b
T2 sequence: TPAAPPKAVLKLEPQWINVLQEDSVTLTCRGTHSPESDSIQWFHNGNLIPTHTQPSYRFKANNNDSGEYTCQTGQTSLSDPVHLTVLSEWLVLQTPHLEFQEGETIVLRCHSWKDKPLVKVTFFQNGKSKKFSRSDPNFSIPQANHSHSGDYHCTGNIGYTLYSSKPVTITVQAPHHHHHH

T3: FcγRIIa(H) extracellular domain, C-terminal His tag (human, UniProt P12318 34-217)
T3 construct: extracellular domain; also called 2aH
T3 sequence: T1 sequence with R134H

B1: GpH7-A5/GpH7-B3 variant P271_13S/GpL16-k0 (antibody, human IgG1, kappa)
heavy 1: not shown
heavy 2: not shown
light: DIVMTQSPLSLPVTPGEPASISCQASESLVHSNRNTYLHWYLQKPGQSPQLLIYKVSNRFSGVPDRFSGSGSGTDFTLKISRVEAEDVGVYYCSQNTHVPPTFGQGTKVEIERTVAAPSVFIFPPSDEQLKSGTASVVCLLNNFYPREAKVQWKVDNALQSGNSQESVTEQDSKDSTYSLSSTLTLSKADYEKHKVYACEVTHQGLSSPVTKSFNRGEC
notes: heterodimerized IgG1, one H chain mutated; also called He Ab; copies: 1 + 1 + 2
B2: GpH7-A5/GpH7-B3 variant Q295_02A/GpL16-k0 (antibody, human IgG1, kappa)
heavy 1: not shown
heavy 2: not shown
light: B1 light
notes: as for B1
B3: GpH7-A5/GpH7-B3 variant S298_04F/GpL16-k0 (antibody, human IgG1, kappa)
heavy 1: not shown
heavy 2: not shown
light: B1 light
notes: as for B1
B4: GpH7-A5/GpH7-B3 variant S298_06M/GpL16-k0 (antibody, human IgG1, kappa)
heavy 1: not shown
heavy 2: not shown
light: B1 light
notes: as for B1
B5: GpH7-A5/GpH7-B3 variant S298_11K/GpL16-k0 (antibody, human IgG1, kappa)
heavy 1: not shown
heavy 2: not shown
light: B1 light
notes: as for B1
B6: GpH7-A5/GpH7-B3 variant Q295_18N/GpL16-k0 (antibody, human IgG1, kappa)
heavy 1: not shown
heavy 2: not shown
light: B1 light
notes: as for B1
B7: GpH7-A5/GpH7-B3 variant S298_14T/GpL16-k0 (antibody, human IgG1, kappa)
heavy 1: not shown
heavy 2: not shown
light: B1 light
notes: as for B1
B8: GpH7-A5/GpH7-B3 variant Q295_09D/GpL16-k0 (antibody, human IgG1, kappa)
heavy 1: not shown
heavy 2: not shown
light: B1 light
notes: as for B1
B9: GpH7-A5/GpH7-B3 variant P271_19Q/GpL16-k0 (antibody, human IgG1, kappa)
heavy 1: not shown
heavy 2: not shown
light: B1 light
notes: as for B1
B10: GpH7-A5/GpH7-B3 variant Q295_10E/GpL16-k0 (antibody, human IgG1, kappa)
heavy 1: not shown
heavy 2: not shown
light: B1 light
notes: as for B1
B11: GpH7-A5/GpH7-B3 variant S298_02A/GpL16-k0 (antibody, human IgG1, kappa)
heavy 1: not shown
heavy 2: not shown
light: B1 light
notes: as for B1
B12: GpH7-A5/GpH7-B3 variant Q295_06M/GpL16-k0 (antibody, human IgG1, kappa)
heavy 1: not shown
heavy 2: not shown
light: B1 light
notes: as for B1
B13: GpH7-A5/GpH7-B3 variant Q295_03V/GpL16-k0 (antibody, human IgG1, kappa)
heavy 1: not shown
heavy 2: not shown
light: B1 light
notes: as for B1
B14: GpH7-A5/GpH7-B3 variant Q295_11K/GpL16-k0 (antibody, human IgG1, kappa)
heavy 1: not shown
heavy 2: not shown
light: B1 light
notes: as for B1
B15: GpH7-A5/GpH7-B3 variant P271_20W/GpL16-k0 (antibody, human IgG1, kappa)
heavy 1: not shown
heavy 2: not shown
light: B1 light
notes: as for B1
B16: GpH7-A5/GpH7-B3 variant S298_08L/GpL16-k0 (antibody, human IgG1, kappa)
heavy 1: not shown
heavy 2: not shown
light: B1 light
notes: as for B1
B17: GpH7-A5/GpH7-B3 variant S298_07I/GpL16-k0 (antibody, human IgG1, kappa)
heavy 1: not shown
heavy 2: not shown
light: B1 light
notes: as for B1
B18: GpH7-A5/GpH7-B3 variant Q295_07I/GpL16-k0 (antibody, human IgG1, kappa)
heavy 1: not shown
heavy 2: not shown
light: B1 light
notes: as for B1
B19: GpH7-A5/GpH7-B3 variant S298_01G/GpL16-k0 (antibody, human IgG1, kappa)
heavy 1: not shown
heavy 2: not shown
light: B1 light
notes: as for B1
B20: GpH7-A5/GpH7-B3 variant Q295_15Y/GpL16-k0 (antibody, human IgG1, kappa)
heavy 1: not shown
heavy 2: not shown
light: B1 light
notes: as for B1
B21: GpH7-A5/GpH7-B3 variant Q295_16H/GpL16-k0 (antibody, human IgG1, kappa)
heavy 1: not shown
heavy 2: not shown
light: B1 light
notes: as for B1
B22: GpH7-A5/GpH7-B3 variant P271_18N/GpL16-k0 (antibody, human IgG1, kappa)
heavy 1: not shown
heavy 2: not shown
light: B1 light
notes: as for B1
B23: GpH7-A5/GpH7-B3 variant Q295_04F/GpL16-k0 (antibody, human IgG1, kappa)
heavy 1: not shown
heavy 2: not shown
light: B1 light
notes: as for B1
B24: GpH7-A5/GpH7-B3 variant Q295_14T/GpL16-k0 (antibody, human IgG1, kappa)
heavy 1: not shown
heavy 2: not shown
light: B1 light
notes: as for B1
B25: GpH7-A5/GpH7-B3 variant Q295_01G/GpL16-k0 (antibody, human IgG1, kappa)
heavy 1: not shown
heavy 2: not shown
light: B1 light
notes: as for B1
B26: GpH7-A5/GpH7-B3 variant S298_12R/GpL16-k0 (antibody, human IgG1, kappa)
heavy 1: not shown
heavy 2: not shown
light: B1 light
notes: as for B1
B27: GpH7-A5/GpH7-B3 variant Q295_08L/GpL16-k0 (antibody, human IgG1, kappa)
heavy 1: not shown
heavy 2: not shown
light: B1 light
notes: as for B1
B28: GpH7-A5/GpH7-B3 variant S298_03V/GpL16-k0 (antibody, human IgG1, kappa)
heavy 1: not shown
heavy 2: not shown
light: B1 light
notes: as for B1
B29: GpH7-A5/GpH7-B3 variant Q295_13S/GpL16-k0 (antibody, human IgG1, kappa)
heavy 1: not shown
heavy 2: not shown
light: B1 light
notes: as for B1
B30: GpH7-A5/GpH7-B3 variant Q295_05P/GpL16-k0 (antibody, human IgG1, kappa)
heavy 1: not shown
heavy 2: not shown
light: B1 light
notes: as for B1

target: T1, FcγRIIa(R) extracellular domain, …; test: SPR; He Ab vs HeCon Ab (GpH7-A5/GpH7-B3/GpL16-k0)=100;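 note: surface plasmon resonance at 25 °C with the test antibody captured on a sensor chip via antigenic peptide, protein L or protein A/G and FcγR flowed over as analyte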

He/Con 2aR [%]	Binder
93.5	B1
91.5	B2
80.4	B3
104	B4
91	B5
81.7	B6
94.2	B7
68.7	B8
95.1	B9
101	B10
87.2	B11
101	B12
90.3	B13
88.1	B14
76.6	B15
100	B16
86.2	B17
97.3	B18
94.5	B19
82	B20
80.5	B21
97.7	B22
82.8	B23
79.2	B24
60.3	B25
81.6	B26
118	B27
82.5	B28
73	B29
86.6	B30

target: T2, FcγRIIb extracellular domain, …; test: as above

He/Con 2b [%]	Binder
98.2	B1
89.4	B2
66.3	B3
103	B4
62.2	B5
72.8	B6
79	B7
68.1	B8
99.3	B9
106	B10
74.4	B11
101	B12
84.9	B13
79	B14
65.1	B15
110	B16
71.5	B17
94.5	B18
81.2	B19
73.3	B20
70.3	B21
105	B22
72.6	B23
74.9	B24
51.6	B25
58.6	B26
134	B27
65.4	B28
63.8	B29
75.7	B30

target: T4, FcγRIa extracellular domain, C-terminal His tag (human, UniProt P12314 16-292); test: as above
T4 construct: extracellular domain; also called 1a
T4 sequence (P12314 other isoform, or with tags, fused parts or gaps): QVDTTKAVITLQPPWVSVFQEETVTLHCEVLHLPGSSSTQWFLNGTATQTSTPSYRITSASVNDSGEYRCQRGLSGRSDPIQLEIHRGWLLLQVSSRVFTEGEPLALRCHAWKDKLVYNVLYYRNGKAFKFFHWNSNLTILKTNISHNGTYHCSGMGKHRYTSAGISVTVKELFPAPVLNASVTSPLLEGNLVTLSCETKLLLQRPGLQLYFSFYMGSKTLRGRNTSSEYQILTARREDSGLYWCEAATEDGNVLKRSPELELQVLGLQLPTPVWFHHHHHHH

He/Con 1a [%]	Binder
101	B1
103	B2
106	B3
111	B4
106	B5
101	B6
104	B7
98.5	B8
102	B9
101	B10
103	B11
102	B12
102	B13
99.7	B14
101	B15
104	B16
104	B17
101	B18
100	B19
100	B20
101	B21
102	B22
101	B23
101	B24
96.1	B25
106	B26
103	B27
106	B28
100	B29
102	B30

target: T5, FcγRIIIa extracellular domain, C-terminal His tag (human, UniProt P08637 17-208); test: as above
T5 construct: extracellular domain; also called 3a
T5 sequence (P08637 other isoform, or with tags, fused parts or gaps): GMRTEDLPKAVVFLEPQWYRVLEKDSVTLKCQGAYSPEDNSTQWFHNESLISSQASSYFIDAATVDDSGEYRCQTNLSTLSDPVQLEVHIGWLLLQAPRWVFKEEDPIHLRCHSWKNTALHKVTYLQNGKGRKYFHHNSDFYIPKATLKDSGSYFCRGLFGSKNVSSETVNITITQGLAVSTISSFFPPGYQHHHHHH

He/Con 3a [%]	Binder
79.8	B1
111	B2
77.6	B3
87.2	B4
50	B5
85.7	B6
106	B7
85.6	B8
84.6	B9
105	B10
151	B11
100	B12
86.2	B13
81.8	B14
77.8	B15
69.2	B16
90.7	B17
101	B18
74.9	B19
81.5	B20
80.2	B21
94	B22
75.1	B23
120	B24
76.6	B25
52.1	B26
120	B27
103	B28
90.4	B29
74.4	B30

target: T3, FcγRIIa(H) extracellular domain, …; test: as above

He/Con 2aH [%]	Binder
83.3	B1
101	B2
75.5	B3
95.8	B4
63.9	B5
87.8	B6
96.2	B7
62.6	B8
90.7	B9
112	B10
74.3	B11
111	B12
106	B13
102	B14
88.7	B15
83	B16
84.9	B17
117	B18
71.4	B19
89.3	B20
90.1	B21
94.5	B22
87.4	B23
86.2	B24
62.5	B25
67.4	B26
128	B27
83.2	B28
79.5	B29
118	B30
